Assay results from patent US20230406912A1, “HUMANISED ANTIBODIES AGAINST PATHOGENIC FUNGI” (priority 2020, published 2023).

Columns and labels:
[1] = ELISA assay on laminarin-coated plates; type: binding
Experimental: The activity of the purified antibody was then tested by ELISA assay. 96-well plates were coated with 50 μg/ml Laminarin (Sigma-Aldrich, L9634) in 0.05 M carbonate buffer pH 9.6 overnight at 4° C. Nonspecific interactions were blocked with 100 μL/well blocking solution, 3% (w/v) BSA in PBS-Tween 20 (8 g/L NaCl, 0.2 g/L KH2PO4, 2.9 g/L Na2HPO4·12 H2O, 0.2 g/L KCI, 0.05% (v/v) Tween 20, pH 7.4) at 37° C. for 1 h. The plates were then incubated with decreasing concentrations of hmAb 2G8_first approach (comparative purpose) (from 3.12 μg/ml to 0.003 μg/ml, each concentration was tested in triplicate) in blocking solution for 2 h at 37° C. At the same temperature and for the same time, 100 μL Goat anti-human-HRP diluted 1:1000 in blocking solution was poured in each well. After every single passage the plates were washed 5 times with PBS-Tween 20. To reveal the binding, 100 μl of 5 mg-ABTS tablet (Roche Diagnostics) dissolved in 12 ml of sodium citrate (0.05 M, pH 3) and supplemented with 1:1000 dilution hydrogen peroxide (Carlo Erba) was added and after 15, 30, 45 and 60 min the absorbance at 405 nm was measured. For the whole measuring time the plates were left in the dark. IC50 analysis of ELISA test was performed with Prism. The TEST was performed in triplicate.
The surnatants collected from the obtained humanised mAb were tested in ELISA test.
Four supernatants from hmAb according to the invention (H5/K3; H5/K1; H5/K7; H5/K5) were purified to confirm the data. 8 scalar dilutions, starting from 5 μg/ml, were tested.
The purified humanised mAb 2G8 H5/K1 was then tested in an ELISA assay using laminarin as a target.

[2] = tested on: C. auris adhesion to HeLa cells; test: Adhesion assay, fungal adhesion to HeLa cell monolayer; type: cell-based; settings: 12 μg/ml, HeLa:yeast 1:1, 1 hour
Experimental: In order to investigate the protective effect of hmAb 2G8 H5/K1 in preventing fungal adhesion to human cells commonly known to be preferred targets, C. auris cells were left adhering to a monolayer of HeLa cells together with the humanised mAb H5/K1, to reproduce an infection-medication scenario. 1.0×10^4 cervical cancer cells HeLa were suspended in RPMI+*10% FBS (pH 7) and plated in a 96-well plate for 2 hours at 37° C.+5% CO2. After incubation, the cells not attached at the bottom of the wells were washed away and 1.0×10^4 cells of C. auris suspended in RPMI+MOPS (0.165 M, pH 7) were added to reach a 1:1 ratio HeLa:yeast cells. Together with the yeast, 12 μg/ml of the humanised mAb 2G8 were added. PBS was used in the control sample. The plate was left at 37° C. for 1 hour and after washing 5 times, HeLa cells were lysed with PBS 0.1% Triton X100 (15 min. RT). The suspension was plated in PDA plate and incubated at 37° C. for 48 hours. This experiment has been repeated two times in triplicate.

C. auris = test: Growth inhibition assay (CFU count); type: cell-based; settings: 18 h at 37° C.
Experimental: The growth inhibitory activity of humanised mAb 2G8 H5/K1 was tested as reported in W. Magliani et al, Nature Biotech. 1997; 15:155-158 with some modifications. In brief, 150-250 cells of C. auris in 10 μl of PBS were incubated with 100 μl of humanised mAb 2G8 at 250, 100 and 50 μg/ml (each concentration was tested in triplicate) and incubated for 18 h at 37° C. The inhibition was evaluated by seeding the yeast on PDA. The plates were incubated at 37° C. for 48 h and the inhibition was calculated by count of the CFU. The assay was performed in triplicate.

[3] = tested on: β-1,3-glucans on the surface of C. auris; test: Recognition of C. auris by flow cytometry and confocal microscopy; type: cell-based; settings: 12 μg/ml mAb
Experimental: From an overnight inoculum, C. auris cells were washed with RPMI+MOPS (0.165 M, pH 7) and 3.0×10^6 cells were pelleted, suspended in Phosphate buffered saline (PBS) containing 3% (w/v) BSA (Bovine Serum Albumin—Sigma Aldrich) and put in contact with 12 μg/ml of the humanised mAb 2G8 for 1 hour at room temperature. The cells were then washed with PBS and marked with anti-human IgG FITC antibody 1:150 in PBS+3% BSA for 1 hour. The cells were then washed and fixed with paraformaldehyde 4% in PBS 1 hour at 4° C. After fixing and washing with PBS, the pellet was suspended in 400 μl of PBS and splitted in two tubes. The samples were analysed using flow cytometry and confocal microscopy, respectively.
A Flow cytometer (FACScanto II, BDBioscences, Erembodegem, Belgium), equipped with three lasers (488 nm, 633 nm, 405 nm) was employed to collect and quantitate FITC fluorescence from different samples. Both autofluorescence and fluorescence derived from a specific binding of FITC-conjugated secondary Ab were quantitated by Flow Cytometry. […] The histogram CTRL evaluates the background from aspecific binding of FITC-conjugated secondary Ab, enabling to fix the threshold defining the positivity for the humanised mAb H5/K1 (treated). 97% of events express the antigen (treated panel). The expression was precisely quantitated by MFI values: the fold of increase is 164, when compared to control (FIG. 12B). Light grey events in FIG. 12A histograms represent cells outside the scatter area mainly occupied by the cells: i.e. aggregates or increase in cell size (as during senescence).

B1: hmAb 2G8 H5/K1: humanised anti β-1,3 glucan mAb; heavy chain variable region H5 (SEQ ID NO: 22), light chain variable region K1 (SEQ ID NO: 15) (antibody, V domains shown)
VH: QVQLQQSGAELKKPGASVKISCKASGYTLSSYWLEWVRQRPGQGLEWIGEILPGSGSTNYNEKFKGRATFTADTSTNTAYMELSSLTSEDSAVYYCAREGWYFDVWGQGTTVTVSS
VL: DVVMTQSPLSLPVTLGQPASISCRSSQSLLYSNGNTHLNWFQQRPGQSPRRLIYLVSNRDSGVPDRFSGSGSGTDFTLKISRVEAEDVGVYYCVQGTHFPYTFGGGTKLEIK
modifications: VH-H5; VL-K1
[1]; ELISA
  activity / affinity compared with murine 2G8: performs better than the original murine one
[1]; ELISA of supernatants of humanised mAbs
  Abs 405 nm: 3.48
[1]; purified supernatants, 8 scalar dilutions from 5 μg/ml
  performance in ELISA assay of purified hmAbs: best performer
[2]
  reduction in fungal adhesion to mammalian cells: 51.5%
C. auris; 50 μg/ml
  inhibition of yeast cell growth: over 60%
C. auris; 100 μg/ml
  inhibition of yeast cell growth: over 70%
C. auris; 250 μg/ml
  inhibition of yeast cell growth: over 70%
[3]; confocal microscopy, FITC signal
  binding on confocal images: recognize and bind β-1,3-glucans on the surface of C. auris
[3]; flow cytometry
  MFI fold of increase compared to control: 164 fold
[3]; flow cytometry, 1 hour
  events expressing the antigen (FITC positive): 97%
